According to patent US20230257448A1 (TWIST BIOSCIENCE, published 2023):

Experiments:
Details in all cases: remark: other sources report otherwise
[1] = target: prefusion-stabilized S trimer of the Delta variant (SARS-CoV-2), P0DTC2
[2] = target: prefusion-stabilized S trimer of the Omicron (B.1.529) variant (SARS-CoV-2), P0DTC2
[3] = target: S1 monomer of SARS-CoV-2 Delta (SARS-CoV-2), P0DTC2

B1: 3-31 (Fc fusion)
chain: EVQLVESGGGLVQPGGSLRLSCAASGSTFSINAMGWFRQAPGKEREFVAGITSSGGYTNYADSVKGRFTISADNSKNTAYLQMNSLKPEDTAVYYCAADGVPEYSDYASGPVWGQGTLVTVSS
B1 was tested, and the Kd [1] was under 0.016 nM, the Kd [2] was 2.1 nM and the Kd [3] was 1.1 nM.
